Laboratory results as given in paper PMC9272907, “Penpulimab, an Fc-Engineered IgG1 Anti-PD-1 Antibody, With Improved Efficacy and Low Incidence of Immune-Related Adverse Events” (Frontiers in Immunology, 2022).

Experiments:
FcγRIa (human) = FcγRIa (human) (UniProt P12314); assay: BLI; ForteBio Octet QKe; FcγRIa immobilised on HIS1K sensor; antibody 50 nM to 3.12 nM in solution; 120 s binding and 120 s dissociation
FcγRIIa_H131 (human) = FcγRIIa_H131 (human) (UniProt P12318); assay: BLI; ForteBio Octet QKe; FcγRIIa_R131 or FcγRIIa_H131 immobilised on NTA sensor; antibody 200 nM to 12.5 nM in solution; 60 s binding and 60 s dissociation
Chain of FcγRIIa_H131 (human) (P12318 34-317): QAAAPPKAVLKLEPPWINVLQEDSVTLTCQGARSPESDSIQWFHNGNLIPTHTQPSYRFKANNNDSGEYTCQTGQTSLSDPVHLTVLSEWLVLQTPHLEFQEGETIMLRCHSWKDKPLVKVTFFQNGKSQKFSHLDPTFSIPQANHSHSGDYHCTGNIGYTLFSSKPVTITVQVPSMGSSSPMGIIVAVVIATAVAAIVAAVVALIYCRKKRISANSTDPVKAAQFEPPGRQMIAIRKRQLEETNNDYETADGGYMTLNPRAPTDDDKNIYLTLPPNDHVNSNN

FcγRIIa_R131 (human) = assay: as above
FcγRIIIa_V158 (human) = assay: BLI; ForteBio Octet QKe; FcγRIIIa_F158 or FcγRIIIa_V158 (5 μg/mL) immobilised on HIS1K sensor; antibody 500 nM to 31.25 nM in solution; 60 s binding and 60 s dissociation
FcγRIIIa_F158 (human) = FcγRIIIa_F158 (human) (UniProt P08637); assay: as above
Chain of FcγRIIIa_F158 (human) (P08637 17-254): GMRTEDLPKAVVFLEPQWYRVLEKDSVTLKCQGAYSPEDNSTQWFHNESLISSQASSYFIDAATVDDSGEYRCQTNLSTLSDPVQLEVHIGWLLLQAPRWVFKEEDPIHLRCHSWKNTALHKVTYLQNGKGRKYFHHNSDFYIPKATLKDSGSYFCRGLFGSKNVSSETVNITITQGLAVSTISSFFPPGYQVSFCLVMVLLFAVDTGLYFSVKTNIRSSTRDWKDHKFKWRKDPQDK

[1] = molecular target: T1, human PD-1 extracellular domain fused to human IgG Fc domain (PD-1-hFc) (Homo sapiens, UniProt Q15116); assay: SPR; Biacore T200; PD-1-hFc immobilised on CM5 chip; antibody 50 nM to 1.56 nM flowed; 180 s binding, 420 s dissociation; conditions: both partners purified
T1 construct: human programmed cell death protein 1 (PD-1), extracellular domain
T1 sequence (Q15116 25-170): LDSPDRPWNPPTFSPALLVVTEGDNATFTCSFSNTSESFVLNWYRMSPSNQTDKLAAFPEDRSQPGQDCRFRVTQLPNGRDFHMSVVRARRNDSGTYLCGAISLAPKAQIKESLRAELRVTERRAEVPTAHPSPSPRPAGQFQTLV

Chain of FcγRIa (human) (P12314 16-374): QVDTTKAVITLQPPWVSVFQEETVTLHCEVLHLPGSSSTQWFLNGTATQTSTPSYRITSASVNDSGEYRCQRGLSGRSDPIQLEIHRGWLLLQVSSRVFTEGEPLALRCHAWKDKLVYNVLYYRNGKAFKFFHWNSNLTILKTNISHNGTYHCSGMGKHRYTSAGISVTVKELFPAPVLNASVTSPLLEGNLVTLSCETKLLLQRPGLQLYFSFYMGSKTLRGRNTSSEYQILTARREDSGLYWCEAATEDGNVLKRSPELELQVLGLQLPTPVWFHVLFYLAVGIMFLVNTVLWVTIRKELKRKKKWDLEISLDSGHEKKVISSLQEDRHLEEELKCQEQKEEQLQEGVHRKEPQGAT

Row | Kd (FcγRIa (human)) | koff (FcγRIa (human)) | kon (FcγRIa (human)) | Kd (FcγRIIa_H131 (human)) | koff (FcγRIIa_H131 (human)) | kon (FcγRIIa_H131 (human)) | Kd (FcγRIIa_R131 (human)) | koff (FcγRIIa_R131 (human)) | kon (FcγRIIa_R131 (human)) | Kd (FcγRIIIa_V158 (human)) | koff (FcγRIIIa_V158 (human)) | kon (FcγRIIIa_V158 (human)) | Kd (FcγRIIIa_F158 (human)) | koff (FcγRIIIa_F158 (human)) | kon (FcγRIIIa_F158 (human)) | Kd [1] | koff [1] | kon [1] | Binder
1 | 8.25 nM | 0.00478 s⁻¹ | 579000 M⁻¹ s⁻¹ | 50.7 nM | 0.013 s⁻¹ | 257000 M⁻¹ s⁻¹ | 31.3 nM | 0.011 s⁻¹ | 350000 M⁻¹ s⁻¹ | 23500 nM | 0.0837 s⁻¹ | 3560 M⁻¹ s⁻¹ | – | – | – | – | – | – | AK105 (hG4), an IgG4 backbone version of penpulimab (antibody, V domains shown) VH: EVQLVESGGGLVQPGGSLRLSCAASGFAFSSYDMSWVRQAPGKGLDWVATISGGGRYTYYPDSVKGRFTISRDNSKNNLYLQMNSLRAEDTALYYCANRYGEAWFAYWGQGTLVTVSS VL: DIQMTQSPSSMSASVGDRVTFTCRASQDINTYLSWFQQKPGKSPKTLIYRANRLVSGVPSRFSGSGSGQDYTLTISSLQPEDMATYYCLQYDEFPLTFGAGTKLELK
2 | 3.35 nM | 0.00213 s⁻¹ | 636000 M⁻¹ s⁻¹ | 57.4 nM | 0.0267 s⁻¹ | 465000 M⁻¹ s⁻¹ | 34.6 nM | 0.0228 s⁻¹ | 660000 M⁻¹ s⁻¹ | 197 nM | 0.0329 s⁻¹ | 167000 M⁻¹ s⁻¹ | 238 nM | 0.04 s⁻¹ | 168000 M⁻¹ s⁻¹ | – | – | – | AK105 (hG1WT), a version of penpulimab with wildtype IgG1 backbone (antibody, V domains shown) VH: EVQLVESGGGLVQPGGSLRLSCAASGFAFSSYDMSWVRQAPGKGLDWVATISGGGRYTYYPDSVKGRFTISRDNSKNNLYLQMNSLRAEDTALYYCANRYGEAWFAYWGQGTLVTVSS VL: DIQMTQSPSSMSASVGDRVTFTCRASQDINTYLSWFQQKPGKSPKTLIYRANRLVSGVPSRFSGSGSGQDYTLTISSLQPEDMATYYCLQYDEFPLTFGAGTKLELK
3 | – | – | – | – | – | – | 232 nM | 0.0938 s⁻¹ | 404000 M⁻¹ s⁻¹ | – | – | – | – | – | – | 0.588 nM | 9.51e-05 s⁻¹ | 162000 M⁻¹ s⁻¹ | Penpulimab (antibody, V domains shown, heavy chain variable domain of penpulimab; light chain of penpulimab; Human IgG1 anti-PD-1 antibody with Fc mutations; probably a Fab; also called AK105) VH: EVQLVESGGGLVQPGGSLRLSCAASGFAFSSYDMSWVRQAPGKGLDWVATISGGGRYTYYPDSVKGRFTISRDNSKNNLYLQMNSLRAEDTALYYCANRYGEAWFAYWGQGTLVTVSS VL: DIQMTQSPSSMSASVGDRVTFTCRASQDINTYLSWFQQKPGKSPKTLIYRANRLVSGVPSRFSGSGSGQDYTLTISSLQPEDMATYYCLQYDEFPLTFGAGTKLELK
